According to patent US20220152100A1, “METHODS FOR CONTROLLED ACTIVATION OR ELIMINATION OF THERAPEUTIC CELLS” (Bellicum Pharmaceuticals, Inc., priority 2014, published 2022):

System: HEK293T/16 cells
Experiment: SEAP-based surrogate killing assay of iCasp9 mutants
Assay type: cell-based, human
Details: for effect on basal / catalytic activity: in words, versus wild type
Protocol: Early passage HEK293T/16 cells (ATCC, Manassas, Va.) were maintained in IMDM, GlutaMAX™ (Life Technologies, Carlsbad, Calif.) supplemented with 10% FBS, 100 U/mL penicillin, and 100 […] until transfection in a humidified, 37° C., 5% CO2/95% air atmosphere. Cells in logarithmic-phase growth were transiently transfected with 800 ng to 2 μg of expression plasmid encoding iCasp9 mutants and 500 ng of an expression plasmid encoding SRα promoter driven SEAP per million cells in 15-mL conical tubes. […] GeneJammer® Transfection Reagent at a ratio of 3 μl per ug of plasmid DNA was used to transiently transfect HEK293T/16 cells in the absence of antibiotics. 100 μl or 2 mL of the transfection mixture was added to each well in 96-well or 6-well plate, respectively.
Briefly, after 65° C. heat denaturation for 45 minutes to reduce background caused by endogenous (and serum-derived) alkaline phosphatases that are sensitive to heat, 5 μl of supernatants was added to 95 μl of PBS and added to 100 μl of substrate buffer, containing 1 μl of 100 mM 4-methylumbelliferyl phosphate (4-MUP; Sigma, St. Louis, Mo.) re-suspended in 2 M diethanolamine. Hydrolysis of 4-MUP by SEAP produces a fluorescent […] with excitation/emission (355/460 nm), which can be easily measured. Assays were performed in black opaque 96-well plates to minimize fluorescence leakage between wells. […] of the mixture was seeded onto each well of a 96-well plate. […] For the assay, 4-methylumbelliferyl phosphate substrate was hydrolyzed by SEAP to 4-methylumbelliferon, a metabolite that can be excited with 364 nm and detected with an emission filter of 448 nm. Since SEAP is used as a marker for cell viability, reduced SEAP reading corresponds with increased iCaspase-9 activities.

Molecule | relative SEAP activity Units (basal, without AP1903) (1 μg iCasp9 per million cells) | relative SEAP activity Units (basal, without AP1903) (2 μg iCasp9 per million cells) | effect on basal / catalytic activity
D330A-N405Q: chimeric modified Caspase-9 polypeptide, double mutant, SEQ ID NO: 28 (protein) GFGDVGALESLRGNADLAYILSMEPCGHCLIINNVNFCRESGLRTRTGSNIDCEKLRRRFSSLHFMVEVKGDLTAKKMVLALLELARQDHGALDCCVVVILSHGCQASHLQFPGAVYGTDGCPVSVEKIVNIFNGTSCPSLGGKPKLFFIQACGGEQKDHGFEVASTSPEDESPGSNPEPDATPFQEGLRTFDQLAAISSLPTPSDIFVSYSTFPGFVSWRDPKSGSWYVETLDDIFEQWAHSEDLQSLLLRVANAVSVKGIYKQMPGCFQFLRKKLFFKTS | 205772 | 174366 | intermediate
N405A: chimeric modified Caspase-9 polypeptide (protein, UniProt P55211 1-416, looked up, variant N405A, chimeric, fused to dimerization domain, chimeric modified Caspase-9 polypeptide) MDEADRRLLRRCRLRLVEELQVDQLWDALLSRELFRPHMIEDIQRAGSGSRRDQARQLIIDLETRGSQALPLFISCLEDTGQDMLASFLRTNRQAAKLSKPTLENLTPVVLRPEIRKPEVLRPETPRPVDIGSGGFGDVGALESLRGNADLAYILSMEPCGHCLIINNVNFCRESGLRTRTGSNIDCEKLRRRFSSLHFMVEVKGDLTAKKMVLALLELAQQDHGALDCCVVVILSHGCQASHLQFPGAVYGTDGCPVSVEKIVNIFNGTSCPSLGGKPKLFFIQACGGEQKDHGFEVASTSPEDESPGSNPEPDATPFQEGLRTFDQLDAISSLPTPSDIFVSYSTFPGFVSWRDPKSGSWYVETLDDIFEQWAHSEDLQSLLLRVANAVSVKGIYKQMPGCFAFLRKKLFFKTS |  |  | no effect
G402I: chimeric modified Caspase-9 polypeptide (protein, UniProt P55211 1-416, looked up, variant G402I, chimeric, fused to dimerization domain, chimeric modified Caspase-9 polypeptide) MDEADRRLLRRCRLRLVEELQVDQLWDALLSRELFRPHMIEDIQRAGSGSRRDQARQLIIDLETRGSQALPLFISCLEDTGQDMLASFLRTNRQAAKLSKPTLENLTPVVLRPEIRKPEVLRPETPRPVDIGSGGFGDVGALESLRGNADLAYILSMEPCGHCLIINNVNFCRESGLRTRTGSNIDCEKLRRRFSSLHFMVEVKGDLTAKKMVLALLELAQQDHGALDCCVVVILSHGCQASHLQFPGAVYGTDGCPVSVEKIVNIFNGTSCPSLGGKPKLFFIQACGGEQKDHGFEVASTSPEDESPGSNPEPDATPFQEGLRTFDQLDAISSLPTPSDIFVSYSTFPGFVSWRDPKSGSWYVETLDDIFEQWAHSEDLQSLLLRVANAVSVKGIYKQMPICFNFLRKKLFFKTS |  |  | catalytically inactive
G402Y: chimeric modified Caspase-9 polypeptide (protein, UniProt P55211 1-416, looked up, variant G402Y, chimeric, fused to dimerization domain, chimeric modified Caspase-9 polypeptide) MDEADRRLLRRCRLRLVEELQVDQLWDALLSRELFRPHMIEDIQRAGSGSRRDQARQLIIDLETRGSQALPLFISCLEDTGQDMLASFLRTNRQAAKLSKPTLENLTPVVLRPEIRKPEVLRPETPRPVDIGSGGFGDVGALESLRGNADLAYILSMEPCGHCLIINNVNFCRESGLRTRTGSNIDCEKLRRRFSSLHFMVEVKGDLTAKKMVLALLELAQQDHGALDCCVVVILSHGCQASHLQFPGAVYGTDGCPVSVEKIVNIFNGTSCPSLGGKPKLFFIQACGGEQKDHGFEVASTSPEDESPGSNPEPDATPFQEGLRTFDQLDAISSLPTPSDIFVSYSTFPGFVSWRDPKSGSWYVETLDDIFEQWAHSEDLQSLLLRVANAVSVKGIYKQMPYCFNFLRKKLFFKTS |  |  | catalytically inactive
^402GCFNF^406ISAQT (Casp-10): Caspase-9 with dimerization residues 402-406 replaced by those of Caspase-10 (protein, UniProt P55211 1-416, looked up, variant G402I C403S F404A N405Q F406T, Caspase-10 dimerization residues swapped in) MDEADRRLLRRCRLRLVEELQVDQLWDALLSRELFRPHMIEDIQRAGSGSRRDQARQLIIDLETRGSQALPLFISCLEDTGQDMLASFLRTNRQAAKLSKPTLENLTPVVLRPEIRKPEVLRPETPRPVDIGSGGFGDVGALESLRGNADLAYILSMEPCGHCLIINNVNFCRESGLRTRTGSNIDCEKLRRRFSSLHFMVEVKGDLTAKKMVLALLELAQQDHGALDCCVVVILSHGCQASHLQFPGAVYGTDGCPVSVEKIVNIFNGTSCPSLGGKPKLFFIQACGGEQKDHGFEVASTSPEDESPGSNPEPDATPFQEGLRTFDQLDAISSLPTPSDIFVSYSTFPGFVSWRDPKSGSWYVETLDDIFEQWAHSEDLQSLLLRVANAVSVKGIYKQMPISAQTLRKKLFFKTS |  |  | reduced basal activity but higher IC50
N405F: chimeric modified Caspase-9 polypeptide (protein, UniProt P55211 1-416, looked up, variant N405F, chimeric, fused to dimerization domain, chimeric modified Caspase-9 polypeptide) MDEADRRLLRRCRLRLVEELQVDQLWDALLSRELFRPHMIEDIQRAGSGSRRDQARQLIIDLETRGSQALPLFISCLEDTGQDMLASFLRTNRQAAKLSKPTLENLTPVVLRPEIRKPEVLRPETPRPVDIGSGGFGDVGALESLRGNADLAYILSMEPCGHCLIINNVNFCRESGLRTRTGSNIDCEKLRRRFSSLHFMVEVKGDLTAKKMVLALLELAQQDHGALDCCVVVILSHGCQASHLQFPGAVYGTDGCPVSVEKIVNIFNGTSCPSLGGKPKLFFIQACGGEQKDHGFEVASTSPEDESPGSNPEPDATPFQEGLRTFDQLDAISSLPTPSDIFVSYSTFPGFVSWRDPKSGSWYVETLDDIFEQWAHSEDLQSLLLRVANAVSVKGIYKQMPGCFFFLRKKLFFKTS |  |  | lowered basal activity
C403P: chimeric modified Caspase-9 polypeptide (protein, UniProt P55211 1-416, looked up, variant C403P, chimeric, fused to dimerization domain, chimeric modified Caspase-9 polypeptide) MDEADRRLLRRCRLRLVEELQVDQLWDALLSRELFRPHMIEDIQRAGSGSRRDQARQLIIDLETRGSQALPLFISCLEDTGQDMLASFLRTNRQAAKLSKPTLENLTPVVLRPEIRKPEVLRPETPRPVDIGSGGFGDVGALESLRGNADLAYILSMEPCGHCLIINNVNFCRESGLRTRTGSNIDCEKLRRRFSSLHFMVEVKGDLTAKKMVLALLELAQQDHGALDCCVVVILSHGCQASHLQFPGAVYGTDGCPVSVEKIVNIFNGTSCPSLGGKPKLFFIQACGGEQKDHGFEVASTSPEDESPGSNPEPDATPFQEGLRTFDQLDAISSLPTPSDIFVSYSTFPGFVSWRDPKSGSWYVETLDDIFEQWAHSEDLQSLLLRVANAVSVKGIYKQMPGPFNFLRKKLFFKTS |  |  | catalytically inactive
^402GCFNF^406AAAAA: Caspase-9 with dimerization residues 402-406 replaced by AAAAA (protein, UniProt P55211 1-416, looked up, variant G402A C403A F404A N405A F406A) MDEADRRLLRRCRLRLVEELQVDQLWDALLSRELFRPHMIEDIQRAGSGSRRDQARQLIIDLETRGSQALPLFISCLEDTGQDMLASFLRTNRQAAKLSKPTLENLTPVVLRPEIRKPEVLRPETPRPVDIGSGGFGDVGALESLRGNADLAYILSMEPCGHCLIINNVNFCRESGLRTRTGSNIDCEKLRRRFSSLHFMVEVKGDLTAKKMVLALLELAQQDHGALDCCVVVILSHGCQASHLQFPGAVYGTDGCPVSVEKIVNIFNGTSCPSLGGKPKLFFIQACGGEQKDHGFEVASTSPEDESPGSNPEPDATPFQEGLRTFDQLDAISSLPTPSDIFVSYSTFPGFVSWRDPKSGSWYVETLDDIFEQWAHSEDLQSLLLRVANAVSVKGIYKQMPAAAAALRKKLFFKTS |  |  | catalytically inactive
